The text below walks through data of patent US10047345B2, “Culturing of mesenchymal stem cells with FGF4 and nicotinamide” (Gamida-Cell Ltd., priority 2012, dated 2018).

“Also recorded” adds a separate entry of the source.

In one assay the test system is MSCs. Particulars: cited from earlier work.
The test system of assay [1] is umbilical cord-derived CD133+ hematopoietic stem cells. Description: Differentiation and proliferation of ex-vivo cultured hematopoietic stem cells (FACS surface markers). Type of assay: cell-based. The protocol: Umbilical cord-derived hematopoietic stem cells were isolated using CD133 microbeads and CliniMACS® separator (Miltenyi, Inc. Auburn, Calif.), and cultured for 3 weeks in MEMα supplemented with 50 ng/ml TPO, IL6, SCF, Flt3, fetal bovine serum, ±2.5 or 5 mM nicotinamide, and/or 10, 50 or 200 ng/ml FGF4. After 3 weeks in culture the cells were stained for surface markers (CD38, CD133, CD33, CD19) and the cell populations determined by FACS analysis (see below). Results are expressed as percentage of total population assayed.
At different time points the cells were detached with 0.25% trypsin-EDTA. The cells were washed with a PBS solution containing 1% BSA, and stained (at 4° C. for 30 min) with either fluorescein isothiocyanate (FITC) or phycoerythrin (PE)-conjugated antibodies: 105 PE, 105 FITC (Serotec, Raleigh, N.C.), 45 FITC, 14 FITC, HLA-DR FITC, 106 PE, 31 PE (BD, Franklin Lakes N.J.), 34 PE (Dako, Glostrup, Denmark), 73 PE, HLA class1 PE, 49b PE (Pharmingen, San Diego, Calif.), 29 PE, 44 PE, 54 FITC, 59 PE, 90 PE (BioLegend, San Diego, Calif.). CD133—(AC141) PE (Miltenyi, Auburn, Calif.), CD38 FITC (Dako, Glostrup, Denmark), CD19 FITC (BD Biosciences, Franklin Lakes N.J.), CD33 FITC (BD Bioscience, Franklin Lakes N.J.).
The cells were then washed in the above buffer and analyzed using a FACScalibur® flow cytometer (Becton Dickinson, Franklin Lakes N.J.). The cells were passed at a rate of up to 1000 cells/second, using a 488 nm argon laser beam as the light source for excitation. Emission of 10000 cells was measured using logarithmic amplification, and analyzed using the CellQuest software (Becton Dickinson). Cells stained with FITC- and PE-conjugated isotype control antibodies were used to determine background fluorescence.
Umbilical cord-derived CD133+ hematopoietic stem cells were isolated and cultured for 3 weeks in medium supplemented with early-acting growth factors and fetal bovine serum, nicotinamide and/or FGF4. After 3 weeks in culture the cells were stained for surface markers (CD38, CD133, CD19) and the cell populations determined by FACS analysis. Cell proliferation was assessed by counting total cells at three weeks.

For assay [2], the system named is mesenchymal stem cells. Description: Cell size of cultured MSCs (Cedex cell counter). Type of assay: cell-based, human. The settings on record: between days 10-32 of culture. On the procedure:
Cell size was measured using Cedex Automated Cell Counter (Innovatis). The cells were diluted 1:2 in Trypan Blue (Sigma) and cell size was measured automatically under microscope.
(§1) Mesenchymal stem cells were selected and cultured in the presence of particular growth factors (basic fibroblast growth factor—bFGF, heparin binding epidermal growth factor—HB-EGF, fibroblast growth factor 4—FGF-4 and platelet derived growth factor, homodimer, subunit B, PDGF-BB) in the presence and absence of nicotinamide for three or four passages and the number and size of the cells was calculated.

Assay [3] relates to mesenchymal stem cells. As to the kind of experiment: Percent of MSC (CD105+CD45-) by FACS. Type of assay: cell-based, human. Particulars: NAM 5 mM, FGF4 50 ng/ml, PDGF-BB 50 ng/ml. On the procedure: At different time points the cells were detached with 0.25% trypsin-EDTA. The cells were washed with a PBS solution containing 1% BSA, and stained (at 4° C. for 30 min) with either fluorescein isothiocyanate (FITC) or phycoerythrin (PE)-conjugated antibodies: 105 PE, 105 FITC (Serotec, Raleigh, N.C.), 45 FITC, 14 FITC, HLA-DR FITC, 106 PE, 31 PE (BD, Franklin Lakes N.J.), 34 PE (Dako, Glostrup, Denmark), 73 PE, HLA class1 PE, 49b PE (Pharmingen, San Diego, Calif.), 29 PE, 44 PE, 54 FITC, 59 PE, 90 PE (BioLegend, San Diego, Calif.). […]
The cells were then washed in the above buffer and analyzed using a FACScalibur® flow cytometer (Becton Dickinson, Franklin Lakes N.J.). […] Emission of 10000 cells was measured using logarithmic amplification, and analyzed using the CellQuest software (Becton Dickinson). Cells stained with FITC- and PE-conjugated isotype control antibodies were used to determine background fluorescence.
as §1
(In general: Flow cytometry measures light scatter and fluorescence of single cells or particles in a stream.)

Take EGF: Epidermal growth factor: the “increase in the number of colony-forming units of MSCs” value with MSCs (Tamama et al. 2010) is listed as 25%.

B1: BMP-3: member of the transforming growth factor beta family (protein, UniProt P12645 363-472, looked up)
Bone morphogenetic protein 3: QWIEPRNCARRYLKVDFADIGWSEWIISPKSFDAYYCSGACQFPMPKSLKPSNHATIQSIVRAVGVVPGIPEPCCVPEKMSSLSILFFDENKNVVLKVYPNMTVESCACR
For the molecule B1, in the assay on MSCs (Stewart et al. 2010), the “increase of MSC proliferation” value is given as “threefold”.

B2: FGF4: Fibroblast growth factor 4, the FGF4 gene product, a 176 AA long protein (protein, UniProt P08620 31-206, looked up)
Fibroblast growth factor 4: APTAPNGTLEAELERRWESLVALSLARLPVAAQPKEAAVQSGAGDYLLGIKRLRRLYCNVGIGFHLQALPDGRIGGAHADTRDSLLELSPVERGVVSIFGVASRFFVAMSSKGKLYGSPFFTDECTFKEILLPNNYNAYESYKYPGMFIALSKNGKTKKGNRVSPTMKVTHFLPRL
Take B2: in assay [1] (3 weeks culture, nicotinamide 2.5 or 5 mM, FGF4 10 to 200 ng/ml), the “degree of differentiation of hematopoietic progenitor cells (CD38 and CD133-expressing fraction)” value was “without any effect on the degree of differentiation; also recorded: neither improved nor reduced”. Further, the “total cell proliferation in hematopoietic cultures” value in assay [1] (3 weeks, FGF4 with or without nicotinamide, results not shown) is “without any discernible effect”. The “fraction of undifferentiated early progenitors (CD38-CD133+)” value in assay [1] (3 weeks, FIG. 35) was “absence of any significant effect”. Moreover, the “differentiation (CD38+ cells)” value in assay [1] (3 weeks, FIG. 36) is “absence of any significant effect”. In addition, the “myeloid lineage differentiation (CD33+ cells)” value in assay [1] (3 weeks, FIG. 37) is given as “moderate enhancement”. The “lymphoid lineage differentiation (CD19+ cells)” value in assay [1] (3 weeks, FIG. 38) is listed as “absence of any significant effect”. In addition, the “abundance of committed myeloid or lymphoid cells (CD33, CD19)” value in assay [1] (three week cultures) was “without any effect”. Also, in the assay with mesenchymal stem cells [2], the “cell diameter of cultured MSCs” value was “greater than 20 μm”.

B3: PDGF-BB: platelet derived growth factor, homodimer, subunit B (protein, UniProt P01127 82-190, looked up)
Platelet-derived growth …: SLGSLTIAEPAMIAECKTRTEVFEISRRLIDRTNANFLVWPPCVEVQRCSGCCNNRNVQCRPTQVQLRPVQVRKIEIVRKKPIFKKATVTLEDHLACKCETVAAARPVT
Take B3: the “fraction of MSC (CD105+CD45-) versus cells other than MSCs in the culture” value with mesenchymal stem cells [3] is listed as “contaminated with a higher fraction of cells other than MSCs”.
